The data set deals with the molecule itself. Nature of the data set: dynamic light scattering.

Here are results for one protein from PMC8989523 (Nucleic Acids Research, 2022).

B1: hPXR LBD (residues 140–434) with an N-terminal His tag and an SRC-1 fragment tethered at the C-terminus (domain or fragment)
chain: VQGLTEEQRMMIRELMDAQMKTFDTTFSHFKNFRLPGVLSSGCELPESLQAPSREEAAKWSQVRKDLCSLKVSLQLRGEDGSVWNYKPPADSGGKEIFSLLPHMADMSTYMFKGIISFAKVISYFRDLPIEDQISLLKGAAFELCQLRFNTVFNAETGTWECGRLSYCLEDTAGGFQQLLLEPMLKFHYMLKKLQLHEEEYVLMQAISLFSPDRPGVLQHRVVDQLQEQFAITLKSYIECNRPQPAHRFLFLKIMAMLTELRSINAQHTQRLLRIQDIHPFATPLMQELFGITGSGGSGGSSHSSLTERHKILHRLLQEGSPS
The stoichiometry N is the number of molecules, sites or subunits per partner or assembly. Take B1: the “stoichiometry N” value is 2.
